This note sets out measurements from the DeepSol protein solubility set.

The series is described as follows: soluble on expression in E. coli; label from the status in PepcDB or PDB records.
With “VGKLQKREYSHEVNDEDLRKKVHDECYARAYEVATSGTGKHERGEAFEKIVEEFKAQYTEEELAEKAEMIARYYHDVEKEAMRRAILDEGKRLDGRKTTEIRP”, the “soluble on expression in E. coli” value was “not soluble”.
With “MGSDKIHHHHHHMKFIVKTQMDMEAVAGNYIREVLPNAKVTIAPEGYPGIVIVESEEENALQKILEVPEVEKVYPVLIEVPANLDSIKSAADEIVKYIKEGETFAVRTKKRGKRDFSSVDVNVVLGARIKDLTNAEVNLSYPDKVVQVEIIGEKAYISVIPGKEYTKWKKYPKDKPDCRKLFRKLTIVQMPYWGDYKTARAFGEKIGRAAQAFEVKELIIAPKEKMNAYELMAFIRGVKEGQESRYQIQKEAYPWEVEKVPVTVWDLYQVIRDKRRNRRLIIITDPKGPTLNEVKDKLARDMYYAKEIIIFIGSREGIPIGLFRFADYVVDLAPYMTFATEHGIPATLVALWTIYEEELRRRGEIND” the entry was “not soluble”; with “MNNHFKCIGIVGHPRHPTALTTHEMLYRWLCDQGYEVIVEQQIAHELQLKNVPTGTLAEIGQQADLAVVVGGDGNMLGAARTLARYDINVIGINRGNLGFLTDLDPDNALQQLSDVLEGRYISEKRFLLEAQVCQQDRQKRISTAINEVVLHPGKVAHMIEFEVYIDETFAFSQRSDGLIISTPTGSTAYSLSAGGPILTPSLDAITLVPMFPHTLSARPLVINSSSTIRLRFSHRRSDLEISCDSQIALPIQEGEDVLIRRCDYHLNLIHPKDYSYFNTLSTKLGWSKKLFMAGDPLEHHHHHH”, “not soluble”; with “ITEQTGQLVYDYNIEKDIADVAGNIEELTGFTSEELGNINLKLWTSRIHPEDLNRFLENHKKYLEPDRKSYRIEYRFRKKNGEYIYLEENWVSPEGDRKSSVKRVLGVIKNITERKQA”, “not soluble”.
For “MRGSHHHHHHTDPALRASSFQFEQIGVIRSPYKEKFAVPRQPGLVKSANGELHLIAPYNQADAVRGLEAFSHLWILFVFHQTMEGGWRPTVRPPRLGGNARMGVFATRSTFRPNPIGMSLVELKEVVCHKDSVILKLGSLDLVDGTPVVDIKPYLPFAESLPDASASYAQSAPAAEMAVSFTAEVEKQLLTLEKRYPQLTLFIREVLAQDPRPAYRKGEETGKTYAVWLHDFNVRWRVTDAGFEVFALEPRGLCGR”, the “soluble on expression in E. coli” value is “soluble”.
With “MIAASDLKAGMTFEQDGKLIKVMEASHHKPGKGNTVMRMKLKDVRTGSTTDTTMRPDEKVKKAHIDTKPVQYLYSQDDMAIFMDLETYEQYEVPTALIEEELKYLLENMEVKIQFYGEEVIGLTLPTTVILRVAETQPSIKGATVTGSGKPATMETGLVVNVPDFVEADELLEINTAEGTYLKRAK” the entry was “not soluble”; with “GSAQLLKSVFVKNVGWATQLTSGAVWVQFNDGSQLVMQAGVSSISYTSPDGQTTRYGENEKLPEYIKQKLQLLSSILLMFSNPTPVFQ”, “soluble”.
In the case of “MGSDKIHHHHHHMKGVLYISFLVCILLGCSDSDGLPDGGKDKTARTELEIVSASIVEGNTQTRADVPFTPGSSIALFCHGQAAETSYTPVNNRKYTLNSGDSKWTAESEATTIYLGSEKADVCGYYPYVEGTVGTADTLYNVRTTIPMDTQDYDPSKELYYVANQEVDAKRYFVEMHFKHAYSRLVLNIGVEDAYPATCSINSVALANDSLFRKAVIDITSGTVGIHPDDTEKQFRGGYNITKDLPYLLDSPDKKYQADLLMIPTKLLPDPFEPTKGLSVIVNVSGFPATVIIPIDDLSDFESGKKYVVSLKLRGIAIKSVTVTTTDWDEKRLNEGVDYEPLPQS” it was “not soluble”.
Take “MGHHHHHHSHMNPLKNIKCTKCPEVFQGVEKLVFHMRAQHFIFMCPRCGKQFNHSSNLNRHMNVHRGVKSHSCGICGKCFTQKSTLHDHLNLHSGARPYRCSYCDVRFAHKPAIRRHLKEQHGKTTAENVL”: the “soluble on expression in E. coli” value was “soluble”.
In the case of “MAHHHHHHMLHRIPAYRDPLLQVLSDALKRALDFYRREMSAGMSVEFECRLGTFSASKHTYAHPFPTHTLTPALLDGQSTTPFFFFAGVAQPSFIAAHETLKTIGASMPPRSSTVLSVRTVGKDRLEYAMNEACNSGHLLTIVEKERIFSHDVRCPGWGADFRVSVSREKTIDRETWNQAKWESFTPNISRLRQRKSVRIDPFLSVDMAMVRSFTDHSRFVRPWSPELQVPFISAPHVSFDVELEVNMPALHRVVKQTRLVESTLGRTALDLLTVLQFLAAKRE” it was “not soluble”; in that of “MGSDKIHHHHHHMREGSIVKLESLINQKYSNLNQTEKEILAFIIENRDFVRKASLSEVAEKSLFSKSAIFRCCKKIGLTGFSQLRYVLTDEKDSEQDSLISVDYLAQTVKSMLWTVNQFKSTNADDIYATLAAAGTIYIYSTGWQQQIMAQQLQRDLYLIGKFAFVFPTGHDEMQLSSTKIKPGDAVIVISYKGMNATIVQLVNNLKLNGVRIVSFTSFRQNRLAQAANFNLYYDIINKTVGIERKTERFFANLTLLIDIFSMGFANYLVAKEERDHEHGEYGQRKSK”, “not soluble”; in that of “MPIPKSAKSDYTKEQKDLVGNICQCKDFYKILNVDKKASPDEIRIAFRKRIREVHPDKCKHPSATEASKVVNNAFSLLMDPAKRRQYDLQNAETSNENLYKRCNRNKNQRKQEYSNTQRQNHKKSEPSNGKRNEQNSSFKQDHNSKNHQSNHQKTKNKKSNPYSNQNNFNNTRKDYREEKSGFSWNTGSA”, “not soluble”.
In the case of “MENKEVIIIGAGAAGVGMGVALKDFGINNFAILERKQVGNSFIKWPEQTRFITPSFTSNGFGMPDLNAIAIDTSPSYTLGEERLSGKDYAKYLQLVSEEYKLPIKTNCKVQSIKKEKTGYLLETTKGFIYAEYVIFAMGEFSFPNKSSIKGAYKNSLHYGEINSWIEIKGDKQTIIGGNESAIDAAIELAKLGKRVTIYTDTLGLNIRDADPSKRLAPRTRQRFFDLRVNQKKLDSIKIYTTTKVKKIEKKSTSYILITENGKSLPVENIPILCTGFKNGTKSITASLFKYKENGEVLLNDFDESTIAKNIFLTGPNVRKGNTIFCYIYKFRQRFAVIANEIARRKHITIDEKKLSYYKNQSFYLDGCSGCEVRCSCLEHHHHHH” it was “soluble”.
With “SIDEEMQVEAAKALREALQKYDRGRGKWHGTGKSIEPAKLGDEEVWRAELAATEVARDVDLGGRWHPAVVLGVGEQDLSVGVEDGPAKGRVPRSDIKWMKGSFKDNFKLGDVVLVRKADEDWSLRQVPEVQGGFMAMDVNTGRVLAMQGGFSYQDSVFNRATQALRQPGSSFKPFVYAAALDSGYSPATIVVDAPIEVNTPQGLWRPKNASNKFYGPTPLRTGIERSRNLMTIRLAQEVSMPVVAGYAERFGVYDHMGPFLANALGSEETTLYKMVAAYAMFANGGERVEPTLVDRIQDRFGKTIYRHDQRDCVDCLSDRLEPDQAPRIVTNRERVMNAITAYQLTSMMRGVVERGTASGTVKLPVPTAGKTGTTNDAKDVWFIGFTSNIVAGCYIGYDRPQPLGRGASGGGMCGPVFQSFMTEAVKKFGGGPF” the entry was “not soluble”.
As for “MTGSVVVAGLGPGAQELITPEVSAALALATDIVGYAPYVARVAERDGLQRHASDNREELDRAGFALRLATEGRHVVIVSSGDPGVFAMAAALFEAIEAGDPSWRELDIRVLPGIS”, the “soluble on expression in E. coli” value was “not soluble”.
For the sequence “MESVRRGKLMKNKKIKFDVYLNGIAYHCIKCGFCCDAPTVTKKDLAKIAGYLKIPFDEVLKRYVRFFNGYIGELKEVGGKCIFLDKKTKKCKIYKVRPLICRLRPYSVQVRNGKLTLTYDIWFLRYCRGLYLGDGKVEDEYFKYAELVLKYLGFEEGVDEEEFKRAKERLLEESLKYRKKKDLEHHHHHH”, the “soluble on expression in E. coli” value was “soluble”.
Regarding “MGSDKIHHHHHHMKIAVINFSGNVGKTTVSRHLLLPRIQGAELISVESVNADEGKTTALRGGQFAELQEYLQTVNSAIVDIGASNVDQLLFLMQSYRGSHEDFDCFVVPTVPPLKQQQDTIATLIDLSRLGVPPSRLKILFNMTEPGRPVEQTFYLLLAYLAQHPIAVPNTACSLGANEIYGRIRGIKSDLGTLARDTTDYKSLIAKAKDATEKLALAQKLATRRLASGVVLELDACFGALDLHALSAGASPTETSAEA”, the “soluble on expression in E. coli” value is on record as “not soluble”.
